Bridge positions count the residues as written; N and C are the ends. Primed or numbered codes have the meaning given here. Ends that are not written are not given here. * marks the point of attachment. PEG8(3) = PEG8 side chain conjugate on Lys; Isovaleryl = CC(C)CC(=O)*
T1: human ferroportin (SLC40A1) fused in frame with GFP, stably expressed on HEK293 cells (human, UniProt Q9NP59 1-571)
T1 sequence (looked up): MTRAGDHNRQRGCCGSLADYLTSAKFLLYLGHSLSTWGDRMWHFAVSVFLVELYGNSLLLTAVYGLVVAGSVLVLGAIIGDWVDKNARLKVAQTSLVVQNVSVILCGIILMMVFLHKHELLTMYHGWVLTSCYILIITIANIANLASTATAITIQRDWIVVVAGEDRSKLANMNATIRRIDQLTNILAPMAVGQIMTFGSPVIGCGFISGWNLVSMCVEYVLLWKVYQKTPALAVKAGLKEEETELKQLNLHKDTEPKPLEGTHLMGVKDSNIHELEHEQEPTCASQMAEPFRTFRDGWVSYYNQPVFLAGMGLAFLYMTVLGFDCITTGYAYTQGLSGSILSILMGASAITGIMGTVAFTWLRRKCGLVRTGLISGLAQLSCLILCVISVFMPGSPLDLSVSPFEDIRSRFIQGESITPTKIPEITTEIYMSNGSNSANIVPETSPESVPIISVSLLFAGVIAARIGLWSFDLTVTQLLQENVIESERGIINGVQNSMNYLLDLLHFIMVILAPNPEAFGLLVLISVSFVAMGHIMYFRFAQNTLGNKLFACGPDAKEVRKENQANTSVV

T2: human ferroportin (SLC40A1) fused in frame with GFP, stably expressed in HEK293 cells (human, UniProt Q9NP59 1-571)
T2 sequence (looked up): T1 sequence (looked up)

B1: Compound 349 (peptide)
peptide: Isovaleryl-DTHFPCIKF-NH2
modifications: also: homodimer with IDA-(β-Ala)-Palm linking moiety, attachment site not given here
B2: Compound 352 (peptide)
peptide: Isovaleryl-DTHFPCIIFGPRSRGWVCK-NH2
modifications: disulfide 6-18 (inferred); not fully specified (residue 19); also: dimer through DIG linker on εN of Lys19 of each monomer
B3: Compound 353 (peptide)
peptide: Isovaleryl-DTHFPICIFGPRSKGWVC-NH2
modifications: disulfide 7-18 (inferred); not fully specified (residue 14); also: dimer through DIG linker on εN of Lys14 of each monomer

Each binder was assayed against T1, human ferroportin (SLC40A1) fused in … (assay: cell-based or functional assay).
H-DTHFPCIIA-NH2 [Compound 278 (DTHFPCIIA-NH2)] was tested, and the “EC50 (nM) (n > 3)” value was greater than 1000 nM.
With H-DTHFPCIAF-NH2 [Compound 51 (DTHFPCIAF-NH2)] the “EC50 (nM) (n > 3)” value was 382 nM.
H-DTHFPCAIF-NH2 [Compound 279 (DTHFPCAIF-NH2)] was tested, and the “EC50 (nM) (n > 3)” value was greater than 1000 nM.
With H-DTHFACIIF-NH2 [Compound 280 (DTHFACIIF-NH2)] the “EC50 (nM) (n > 3)” value was greater than 1000 nM.
With H-DTAFPCIIF-NH2 [Compound 283 (DTAFPCIIF-NH2)] the “EC50 (nM) (n > 3)” value was 739 nM.
In the case of H-DAHFPCIIF-NH2 [Compound 52 (DAHFPCIIF-NH2)], the “EC50 (nM) (n > 3)” value is reported as 388 nM.
For H-ATHFPCIIF-NH2 [Compound 284 (ATHFPCIIF-NH2)], the “EC50 (nM) (n > 3)” value was greater than 1000 nM.

The binders below were run against T2, human ferroportin (SLC40A1) fused in … (assay: cell-based or functional assay).
With Isovaleryl-DTHFPICIFGPRSKGWVC-NH2 (disulfide 7-18 (inferred)) [Compound 2] the “In Vitro Activity EC50” value was 5 nM.
In the case of Isovaleryl-DTHFPCIKFGPRSKGWVCK(PEG8(3))-NH2 (not fully specified (bridges); cysteine pairing not given here) [Compound 153], the “In Vitro Activity EC50” value is reported as 18 nM.
With Isovaleryl-DTHFPICIFGPRSK(PEG8(3))GWVC-NH2 (not fully specified (bridges); cysteine pairing not given here) [Compound 176] the “In Vitro Activity EC50” value was 6 nM.
For Isovaleryl-DTHFPCIKFEPRSKGCK-NH2 (not fully specified (bridges); cysteine pairing not given here) [Compound 184], the “In Vitro Activity EC50” value was 16 nM.
With Isovaleryl-DTHFPCIKFEPRSKGWVCK-NH2 (not fully specified (bridges); cysteine pairing not given here) [Compound 181] the “In Vitro Activity EC50” value was 15 nM.

Molecular target: T2, human ferroportin (SLC40A1) fused in …
Assay: cell-based or functional assay
Remark: another data set of the same source
In the case of H-DTHFPCIKF-NH2 (also: homodimer with IDA-(β-Ala) linking moiety, attachment site not given here) [Compound 348], the “Log dilutions EC50 (nM) (n > 3)” value is reported as 18 nM.
For B1, the “Log dilutions EC50 (nM) (n > 3)” value was 5 nM.
For Isovaleryl-DTHFPCIKFK-NH2 (also: homodimer linked by DIG linker through Lys10 of each monomer) [Compound 346], the “Log dilutions EC50 (nM) (n > 3)” value was 15 nM.
With DTHFPCIKF-NH2 (not fully specified; printed as [PEG25]-(DTHFPCIKF-NH2)2) [Compound 351] the “Log dilutions EC50 (nM) (n > 3)” value was greater than 1000 nM.

Molecular target: T2, human ferroportin (SLC40A1) fused in …
Assay: cell-based or functional assay
Remark: another data set of the same source
For Isovaleryl-DTHFPICIFGPRSKGWVC-NH2 (disulfide 7-18 (inferred)) [Compound 2], the “Log dilutions EC50 (nM) (n > 3)” value was 4.1 nM.
For B2, the “Log dilutions EC50 (nM) (n > 3)” value was 5 nM.
For B3, the “Log dilutions EC50 (nM) (n > 3)” value was 2.2 nM.

Source: patent US20250340608A1 (PROTAGONIST THERAPEUTICS, published 2025)
